Test results: patent US20040053370A1 (Eli Lilly, published 2004)
Ends that are not written are not given here.

Each binder was assayed against GLP-1 receptor (assay: cell-based or functional assay).
HVEGTFTSDVSSYLEGQAAKEFIDWLVKGRG [Val^8-Asp^30-GLP-1(7-37)OH] was tested, and the “GLP-1 Receptor Activation” value was 0.15 fold of GLP-1(7-37)OH.
In the case of HVEGTFTSDVSSYLEEQAAKEFIAWLVKGRG [Val^8-Glu^22-GLP-1(7-37)OH], the “GLP-1 Receptor Activation” value is reported as 1.29 fold of GLP-1(7-37)OH.
For HVEGTFTSDVSSYLEGKAAKEFIAWLVKGRG [Val^8-Lys^23-GLP-1(7-37)OH], the “GLP-1 Receptor Activation” value was 0.18 fold of GLP-1(7-37)OH.
For HVEGTFTSDVSSYLEDQAAKEFIAWLVKGRG [Val^8-Asp^22-GLP-1(7-37)OH], the “GLP-1 Receptor Activation” value was 0.4 fold of GLP-1(7-37)OH.
With HVEGTFTSDVSSYLEKQAAKEFIEWLVKGRG [Val^8-Lys^22-Glu^30-GLP-1(7-37)OH] the “GLP-1 Receptor Activation” value was 0.37 fold of GLP-1(7-37)OH.
In the case of HVEGKFTSDVSSYLEGQAAKEFIAWLVKGRG [Val^8-Lys^11-GLP-1(7-37)OH], the “GLP-1 Receptor Activation” value is reported as 0.001 fold of GLP-1(7-37)OH.
For HVEGTFTSDVSSYLEGQAAKEFIAWLAKGRG [Val^8-Ala^33-GLP-1(7-37)OH], the “GLP-1 Receptor Activation” value was 0.1 fold of GLP-1(7-37)OH.
HVEGTFTSDVSSYLEGQAAKEFIAWLVEGRG [Val^8-Glu^34-GLP-1(7-37)OH] was tested, and the “GLP-1 Receptor Activation” value was 0.17 fold of GLP-1(7-37)OH.
In the case of HVEGTFTSDASSYLEGQAAKEFIAWLVKGRG [Val^8-Ala^16-GLP-1(7-37)OH], the “GLP-1 Receptor Activation” value is reported as 0.112 fold of GLP-1(7-37)OH.
With HVEGTFTSDVSSYLEGQAAKEFISWLVKGRG [Val^8-Ser^30-GLP-1(7-37)OH] the “GLP-1 Receptor Activation” value was 0.19 fold of GLP-1(7-37)OH.
For HVEGTFTSDVSSYLEGQHAKEFIAWLVKGRG [Val^8-His^24-GLP-1(7-37)OH], the “GLP-1 Receptor Activation” value was 0.007 fold of GLP-1(7-37)OH.
With HVEGTFTSDVSSYLEGQAAKHFIAWLVKGRG [Val^8-His^27-GLP-1(7-37)OH] the “GLP-1 Receptor Activation” value was 0.37 fold of GLP-1(7-37)OH.
HVEGTFTSDVSSYLEGQAAKEFIAWLVKERG [Val^8-Glu^35-GLP-1(7-37)OH] was tested, and the “GLP-1 Receptor Activation” value was 0.15 fold of GLP-1(7-37)OH.
With HVEGAFTSDVSSYLEGQAAKEFIAWLVKGRG [Val^8-Ala^11-GLP-1(7-37)OH] the “GLP-1 Receptor Activation” value was 0.021 fold of GLP-1(7-37)OH.
In the case of HVEGTFTSDVSSYLEPQAAKEFIAWLVKGRG [Val^8-Pro^22-GLP-1(7-37)OH], the “GLP-1 Receptor Activation” value is reported as 0.01 fold of GLP-1(7-37)OH.
In the case of HVEGTFTSDVSSYLEGQAAKEFIHWLVKGRG [Val^8-His^30-GLP-1(7-37)OH], the “GLP-1 Receptor Activation” value is reported as 0.19 fold of GLP-1(7-37)OH.
For HVEGTFTSDVSSYLEGQAAKEFIAWLEKGRG [Val^8-Glu^33-GLP-1(7-37)OH], the “GLP-1 Receptor Activation” value was 0.039 fold of GLP-1(7-37)OH.
In the case of HVEGTFTSDVSSYLEKQAAKEFIAWLVKGRG [Val^8-Lys^22-GLP-1(7-37)OH], the “GLP-1 Receptor Activation” value is reported as 0.58 fold of GLP-1(7-37)OH.
For HVEGTFTSDVSSYLEGQAAKEFIAWLVKGRH [Val^8-His^37-GLP-1(7-37)OH], the “GLP-1 Receptor Activation” value was 0.33 fold of GLP-1(7-37)OH.
With HVEGTFTSDVSSYLEGQAAHEFIAWLVKGRG [Val^8-His^26-GLP-1(7-37)OH] the “GLP-1 Receptor Activation” value was 1.6 fold of GLP-1(7-37)OH.
In the case of HVEGTFTSDVSSYLEGQAAKEFIEWLVKGRG [Val^8-Glu^30-GLP-1(7-37)OH], the “GLP-1 Receptor Activation” value is reported as 0.29 fold of GLP-1(7-37)OH.
In the case of HVEGTFTSDVSSYLEGQAAKEFIAWLVKGEG [Val^8-Glu^36-GLP-1(7-37)OH], the “GLP-1 Receptor Activation” value is reported as 0.11 fold of GLP-1(7-37)OH.
With HVEGTFTSDVSSYLEGQAAKEFIAWLVKHRG [Val^8-His^35-GLP-1(7-37)OH] the “GLP-1 Receptor Activation” value was 0.41 fold of GLP-1(7-37)OH.
For HVEGTFTSDVSSYKEGQAAKEFIAWLVKGRG [Val^8-Lys^20-GLP-1(7-37)OH], the “GLP-1 Receptor Activation” value was 0.33 fold of GLP-1(7-37)OH.
With HVEGTFTSDVSSYLEKEAAKEFIAWLVKGRG [Val^8-Lys^22-Glu^23-GLP-1(7-37)OH] the “GLP-1 Receptor Activation” value was 0.35 fold of GLP-1(7-37)OH.
In the case of HVEGTFTSDVSSYLEGQAAEEFIAWLVKGRG [Val^8-Glu^26-GLP-1(7-37)OH], the “GLP-1 Receptor Activation” value is reported as 1.5 fold of GLP-1(7-37)OH.
HVEGTFTSDVSSYLEAQAAKEFIAWLVKGRG [Val^8-Ala^22-GLP-1(7-37)OH] was tested, and the “GLP-1 Receptor Activation” value was 0.56 fold of GLP-1(7-37)OH.
With HVEGTFTSDVSSYLEGQAAKEFIAWLVKPRG [Val^8-Pro^35-GLP-1(7-37)OH] the “GLP-1 Receptor Activation” value was 0.094 fold of GLP-1(7-37)OH.
For HVEGTFTSDVSSYLEGQAAKEFIAWLVKGHG [Val^8-His^36-GLP-1(7-37)OH], the “GLP-1 Receptor Activation” value was 0.22 fold of GLP-1(7-37)OH.
For HVEGTFTSDVSSYLEHQAAKEFIAWLVKGRG [Val^8-His^22-GLP-1(7-37)OH], the “GLP-1 Receptor Activation” value was 0.14 fold of GLP-1(7-37)OH.
In the case of HVEGTFTSDVSSYLEGQKAKEFIAWLVKGRG [Val^8-Lys^24-GLP-1(7-37)OH], the “GLP-1 Receptor Activation” value is reported as 0.02 fold of GLP-1(7-37)OH.
For HVEGTFTSDVSSYLESQAAKEFIAWLVKGRG [Val^8-Ser^22-GLP-1(7-37)OH], the “GLP-1 Receptor Activation” value was 0.5 fold of GLP-1(7-37)OH.
In the case of HVEGTFTSDVSSYLEGQAAKEFIAWLGKGRG [Val^8-Gly^33-GLP-1(7-37)OH], the “GLP-1 Receptor Activation” value is reported as 0.01 fold of GLP-1(7-37)OH.
With HVEGTFTSDVSSYLEEKAAKEFIAWLVKGRG [Val^8-Glu^22-Lys^23-GLP-1(7-37)OH] the “GLP-1 Receptor Activation” value was 1.43 fold of GLP-1(7-37)OH.
In the case of HVEGTFTSDESSYLEGQAAKEFIAWLVKGRG [Val^8-Glu^16-GLP-1(7-37)OH], the “GLP-1 Receptor Activation” value is reported as 0.047 fold of GLP-1(7-37)OH.
HAEGTFTSDVSSYLEQQAAKEFIAWLVKGRG [Gln^22-GLP-1(7-37)OH] was tested, and the “GLP-1 Receptor Activation” value was 0.42 fold of GLP-1(7-37)OH.
For HVEGTFTSDLSSYLEGQAAEEFIAWLVKGRG [Val^8-Leu^16-Glu^26-GLP-1(7-37)OH], the “GLP-1 Receptor Activation” value was 0.23 fold of GLP-1(7-37)OH.
For HVEGTFTSDVSSYLEEQAAKEFIAWLVKGR-NH2 [Val^8-Glu^22-GLP-1(7-36)NH2], the “GLP-1 Receptor Activation” value was 1 fold of GLP-1(7-37)OH.
HVEGTFTSDVSSYLEGQAAKEFIAWLVKGGP-NH2 [Val^8-Gly^36-Pro^37-GLP-1(7-37)NH2] was tested, and the “GLP-1 Receptor Activation” value was 0.53 fold of GLP-1(7-37)OH.
In the case of HVEGTFTSDVSSYLEKQAAKEFIAWLVKGR-NH2 [Val^8-Lys^22-GLP-1(7-36)NH2], the “GLP-1 Receptor Activation” value is reported as 0.53 fold of GLP-1(7-37)OH.
For HVEGTFTSDVSSYLEGQAAKEFIAWLKVGRG [Val^8-Lys^33-Val^34-GLP-1(7-37)OH], the “GLP-1 Receptor Activation” value was 0.08 fold of GLP-1(7-37)OH.
In the case of HVEGTFTSDVSSYLEGQAAKEFIAWLVGKRG [Val^8-Gly^34-Lys^35-GLP-1(7-37)OH], the “GLP-1 Receptor Activation” value is reported as 0.34 fold of GLP-1(7-37)OH.
For HGEGHFTSDVSSYLEGQAAKEFIAWLVKGRG [Gly^8-His^11-GLP-1(7-37)OH], the “GLP-1 Receptor Activation” value was 0.282 fold of GLP-1(7-37)OH.
With HGEGTFTSDVSSYLEGQAAKEFIEWLVKGRG [Gly^8-Glu^30-GLP-1(7-37)OH] the “GLP-1 Receptor Activation” value was 0.29 fold of GLP-1(7-37)OH.

Biological target: GLP-1 receptor
Assay: cell-based or functional assay
Remark: another data set of the same source
With HVEGTYTSDVSSYLEGQAAKEFIAWLVKGR-NH2 [Val^8-Tyr^12-GLP-1(7-36)NH2] the “GLP-1 Receptor Activation” value was 0.52 fold of GLP-1(7-37)OH.
In the case of HVEGTFTSDVSSYFEEQAAKEFIAWLVKGRG [Val^8-Phe^20-Glu^22-GLP-1(7-37)OH], the “GLP-1 Receptor Activation” value is reported as 1.27 fold of GLP-1(7-37)OH.
HVEGTYTSDVSSYLEEQAAKEFIAWLVKGRG [Val^8-Tyr^12-Glu^22-GLP-1(7-37)OH] was tested, and the “GLP-1 Receptor Activation” value was 1.27 fold of GLP-1(7-37)OH.
With HGEGTFTSDVSSYLEGQAAKEFIAWLVKGRG [Gly^8-GLP-1(7-37)OH] the “GLP-1 Receptor Activation” value was 0.8 fold of GLP-1(7-37)OH.
For HVEGTFTSDLSSYLEGQAAKEFIAWLVKGRG [Val^8-Leu^16-GLP-1(7-37)OH], the “GLP-1 Receptor Activation” value was 0.52 fold of GLP-1(7-37)OH.
In the case of HVEGTFTSDVSSYLEEQAAKIFIAWLVKGRG [Val^8-Glu^22-Ile^27-GLP-1(7-37)OH], the “GLP-1 Receptor Activation” value is reported as 0.94 fold of GLP-1(7-37)OH.
HVEGTFTSDVSSYLEGQALKEFIAWLVKGRG [Val^8-Leu^25-GLP-1(7-37)OH] was tested, and the “GLP-1 Receptor Activation” value was 0.24 fold of GLP-1(7-37)OH.
In the case of HVEGTWTSDVSSYLEGQAAKEFIAWLVKGRG [Val^8-Trp^12-GLP-1(7-37)OH], the “GLP-1 Receptor Activation” value is reported as 0.52 fold of GLP-1(7-37)OH.
HVEGTFTSDVSSYLEEQALKEFIAWLVKGRG [Val^8-Glu^22-Leu^25-GLP-1(7-37)OH] was tested, and the “GLP-1 Receptor Activation” value was 1.32 fold of GLP-1(7-37)OH.
With HVEGTWTSDVSSYLEEQAAKEFIAWLVKGRG [Val^8-Trp^12-Glu^22-GLP-1(7-37)OH] the “GLP-1 Receptor Activation” value was 0.8 fold of GLP-1(7-37)OH.
In the case of HVEGTFTSDVSSYLEEQAIKEFIAWLVKGRG [Val^8-Glu^22-Ile^25-GLP-1(7-37)OH], the “GLP-1 Receptor Activation” value is reported as 1.46 fold of GLP-1(7-37)OH.
HVEGTFTSDCSSYLEGQAAKEFIAWLVKGRG [Val^8-Cys^16-Lys^26-GLP-1(7-37)OH] was tested, and the “GLP-1 Receptor Activation” value was 1.97 fold of GLP-1(7-37)OH.
For HVEGTFTSDYSSWLEEQAAKEFIAWLVKGRG [Val^8-Tyr^16-Trp^19-Glu^22-GLP-1(7-37)OH], the “GLP-1 Receptor Activation” value was 1.64 fold of GLP-1(7-37)OH.
With HVEGTYTSDYSSYLEGQAAKEFIAWLVKGRG [Val^8-Tyr^12-Tyr^16-GLP-1(7-37)OH] the “GLP-1 Receptor Activation” value was 0.7 fold of GLP-1(7-37)OH.
In the case of HVEGTFTSDWSSYLEEQAVKEFIAWLIKGRG [Val^8-Trp^16-Glu^22-Val^25-Ile^33-GLP-1(7-37)OH], the “GLP-1 Receptor Activation” value is reported as 2.35 fold of GLP-1(7-37)OH.
With HVDGIFTSDYSSYLEEQAAKEFIAWLVKGRG [Val^8-Asp^9-Ile^11-Tyr^16-Glu^22-GLP-1(7-37)OH] the “GLP-1 Receptor Activation” value was 2.02 fold of GLP-1(7-37)OH.
